Assay results reported in the supplement of paper PMC10126150.
± gives the standard deviation of the averaged measurements.

Test system: ATP
Assay: switch fluorescence ratio, 500 uM ATP over buffer (Cy3 cluster intensity, sum of 5 cycles each) (fold (ratio)); higher = stronger signal-on switching upon ATP binding; sequences stand for … in TCGTCGGCAGCGTCAGATGTGTATAAGAGACAGTTTTTTTTTTTTTTTTTTTTTTTTT…TC
Conditions: aptamer strand: ATP DNA aptamer (quencher-CACCTGGGGGAGTATTGCGGAGGAAGG + anchor), 100 nM annealed; ATP concentration: 500 uM
In short: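 After annealing to 100 nM quencher-labelled ATP aptamer, Cy3-labelled switching-strand clusters on a modified Illumina MiSeq flow-cell were imaged in selection buffer. A second image followed after 15 min with 500 uM ATP at 22 °C, and five such buffer/ATP cycles were done, each separated by NaOH stripping and re-annealing. The fluorescence ratio, averaged per switch-domain sequence, is summed target-cycle over summed buffer-cycle Cy3 intensity per cluster, with clusters outside 100-1000 RFU excluded.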
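Note: ATP exposure 15 min at 22 °C before imaging.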

| Sequence | switch fluorescence ratio |
| --- | --- |
| CGCAGGAAAG | 0.973 ± 0.0023 |
| CGCAGGATTT | 1.09 ± 0.19 |
| CGCAGGCCTC | 1.47 ± 0.062 |
| CGCAGGGTGG | 1.05 ± 0.022 |
| CGCAGGTGGG | 1.08 ± 0.042 |
| CGCAGGTTTG | 1.03 ± 0.011 |
| CGCAGTTCTT | 1.198 ± 0.0086 |
| CGCATTTTTT | 1.13 ± 0.12 |
| CGCCAAATTT | 1.07 ± 0.1 |
| CGCCACTGTG | 1.06 ± 0.044 |
| CGCCCCTGTA | 1.04 ± 0.035 |
| CGCCGGGTTG | 0.984 ± 0.033 |
| CGCCGTGTCA | 1.02 ± 0.068 |
| CGCCTGTTAG | 0.99 ± 0.016 |
| CGCGAAAGAA | 0.9682 ± 0.0033 |
| CGCGAACATG | 0.984 ± 0.049 |
| CGCGAAGGCT | 1.04 ± 0.015 |
| CGCGAATATA | 1 ± 0.019 |
| CGCGAATTTG | 1.02 ± 0.021 |
| CGCGACTAAA | 0.9951 ± 0.0066 |
| CGCGAGGCGT | 1.07 ± 0.12 |
| CGCGATAGTA | 1.27 ± 0.026 |
| CGCGATGGGT | 1.08 ± 0.033 |
| CGCGATGTAC | 3.82 ± 0.15 |
| CGCGCAGGGA | 1.03 ± 0.013 |

| Sequence | switch fluorescence ratio |
| --- | --- |
| CGCGCGGTTT | 1.02 ± 0.041 |
| CGCGCTTTTG | 1.01 ± 0.017 |
| CGCGGACGGT | 1.05 ± 0.052 |
| CGCGGATTGG | 0.9903 ± 0.0094 |
| CGCGGCAAGG | 1.32 ± 0.31 |
| CGCGGGAGGG | 1.04 ± 0.022 |
| CGCGGGGGGA | 1.03 ± 0.06 |
| CGCGGGGGTG | 1.03 ± 0.024 |
| CGCGGGGTCC | 1.05 ± 0.048 |
| CGCGGGTAAC | 1.036 ± 0.0077 |
| CGCGGGTTGA | 1.053 ± 0.0094 |
| CGCGGTACGG | 1.47 ± 0.39 |
| CGCGGTTCTG | 1.01 ± 0.029 |
| CGCGTAGAC | 1.66 ± 0.14 |
| CGCGTATTGT | 0.999 ± 0.016 |
| CGCGTGGCGG | 0.999 ± 0.024 |
| CGCGTTGGCA | 1.04 ± 0.028 |
| CGCTCACGGT | 1.066 ± 0.0026 |
| CGCTCGGGTT | 1.003 ± 0.0025 |
| CGCTCGTTGT | 0.9559 ± 0.0033 |
| CGCTGACCTT | 1.2 ± 0.037 |
| CGCTGGGGGA | 1.055 ± 0.0022 |
| CGCTGGGGTT | 0.9962 ± 0.0047 |
| CGCTGTGAAG | 1.02 ± 0.012 |
| CGCTGTGATG | 1.013 ± 0.0053 |

| Sequence | switch fluorescence ratio |
| --- | --- |
| CGCTGTTTTT | 1.02 ± 0.024 |
| CGCTTATCCT | 1.1 ± 0.038 |
| CGCTTCTAGG | 1.04 ± 0.024 |
| CGCTTGAGA | 1.04 ± 0.026 |
| CGCTTGGCTG | 0.981 ± 0.051 |
| CGCTTGGTAC | 3.39 ± 0.079 |
| CGCTTTAATA | 1.07 ± 0.019 |
| CGGAAAATTT | 1.01 ± 0.075 |
| CGGAAAGTGT | 0.996 ± 0.024 |
| CGGAAGCATG | 1.13 ± 0.047 |
| CGGAAGCGTG | 0.984 ± 0.016 |
| CGGAAGCTCT | 1.036 ± 0.0028 |
| CGGAAGGGCC | 0.995 ± 0.03 |
| CGGAAGTGCG | 1.0061 ± 6.8e-05 |
| CGGAATGGTT | 1.04 ± 0.036 |
| CGGACCGGGG | 0.996 ± 0.041 |
| CGGACCTAGT | 0.9689 ± 0.0042 |
| CGGACGGCTC | 1.093 ± 0.01 |
| CGGACTGGTT | 1.005 ± 0.0057 |
| CGGACTTATT | 0.9686 ± 0.0054 |
| CGGAGAATAG | 1.234 ± 0.012 |
| CGGAGACCGT | 1 ± 0.022 |
| CGGAGACGTG | 1 ± 0.025 |
| CGGAGAGGGT | 1 ± 0.029 |
| CGGAGAGTAG | 1.03 ± 0.018 |

| Sequence | switch fluorescence ratio |
| --- | --- |
| CGGAGGAATT | 1.2 ± 0.11 |
| CGGAGGATGG | 0.9867 ± 0.0084 |
| CGGAGGCAAG | 1.14 ± 0.045 |
| CGGAGGGGAT | 1.062 ± 0.005 |
| CGGAGGGGCC | 1.02 ± 0.033 |
| CGGAGTCGGG | 1.04 ± 0.052 |
| CGGAGTTGCG | 0.98 ± 0.013 |
| CGGATAATTG | 0.9886 ± 0.0054 |
| CGGATATGGA | 0.988 ± 0.058 |
| CGGATATGGC | 1.03 ± 0.1 |
| CGGATATTGC | 1 ± 0.059 |
| CGGATCCAGG | 1.35 ± 0.042 |
| CGGATCGATT | 0.9907 ± 0.0018 |
| CGGATGAGTG | 0.953 ± 0.1 |
| CGGATGGGGC | 1 ± 0.042 |
| CGGATTAGGT | 0.993 ± 0.028 |
| CGGATTCGTA | 0.986 ± 0.036 |
| CGGATTGTAG | 1.03 ± 0.04 |
| CGGCAAGTGG | 1.05 ± 0.031 |
| CGGCAATCCT | 3.99 ± 0.15 |
| CGGCAGGGGG | 1.06 ± 0.1 |
| CGGCATGCGG | 1.022 ± 0.0035 |
| CGGCATGGAG | 0.996 ± 0.025 |
| CGGCCAGCTG | 1.03 ± 0.03 |
| CGGCCCACGC | 1.04 ± 0.082 |
